Results reported in the DeepSol protein solubility set.

Test: soluble on expression in E. coli; label from the status in PepcDB or PDB records

Row | Sequence | soluble on expression in E. coli
1 | MGHHHHHHSHMAERCFQQAIAFQASCAAVEACFQDLELMHRWLNPLLRCRPEGDWNLDRGSRNRFQIQIPLIYPSLECVVCDRAEGLIVWQFEGFFQGTDTWRWWQEGEHTQLDNCFRFRIAKPWVAWGFDRVAAGVTQRDMQAQLQRLKAIAETLPVASTVTDNLP | not soluble
2 | MGHHHHHHSHMAFCAILLVPSLCRMPSLPTSPWAFPVHWAGFMFKPLDWQGNDFFPPQDEVLAPLSWHKNTFKA | not soluble
3 | MGHHHHHHSHMAFPPGALHPLPKRQALEKSNGTSAVFNPSVLHYQQALTSAQLQQHAAFIPTDNSEIISRNGMECQESALRITKHCYCTYYPVSSSIELPQTAC | not soluble
4 | MGHHHHHHSHMAGTALKRLMAVYKQLTLNPPEGIVAGPMNEENFFEWEALIMGPEDTCFEFGVFPAILSFPLDYPLSPPKMRFTCEMFHPNIYPDGRVCISILHAPGDDPHGLREQPERWSPVQSVEKILLSVVSMLAEPNDESGANVDASKMWRDDREQFYKIAKQIVQKSLGL | not soluble
5 | MGHHHHHHSHMAHYLFNPFYLRLDCDLSKAYIHRIFASFYMEKEADAHTNEKRSKPMTQQYIVEPKKGLGLKLKKGQILKVVDVEGQQVADFVAYHAKDSYEHLDQGATIDAIHSIHVKVSDHLYSNPVLSRWLPLIEDTGPASMICCWPACRPDIEQALIWEAKRMSFRIRAMTICAVRLSSLAYRSPTCITHLRYCMDTVLDEEGNLSVETPLSDAGDYVRLRAEMDLIVAFSSCPRCNRDIQWRQCDIHTG | not soluble
6 | MGHHHHHHSHMASSTSLPAPGSRPKKPLGKMADWFRQTLLKKPKKRPNSPESTSSDASQPTSQDNPLPPSLSSVTSPSLPPTHASDSGSSRWSKDYDVCVCHSEEDLVAAQDLVSYLEGSTASLRCFLQLRDATPGGAIVSELCQALSSSHCRVLLITPGFLQDPWCKYQMLQALTEAPGAEGCTIPLLSGLSRAAYPPELRFMYYVDGRGPDGGFRQVKEAVMRCKLLQEGEGERDSATVSDLL | soluble
7 | MGHHHHHHSHMATLIYVDKEIGEPGTRVAAKDVLKLESRPSIKALDGISQVLTPRFGKTYDAPSALPKATRKALGTVNRATEKSVKTNGPRKQKQPSFSAKKMTEKTVKTKSSVPASDDAYPEIEKFFPFNLLDFESFDLPEERQIAHLPLSGVPLMILDEEGELEKLFQLGPPSPVKMPSPPWECNLFAVSFKHSVDPGC | not soluble
8 | MGHHHHHHSHMDDIFTQCREGNAVAVRLWLDNTENDLNQGDDHGFSPLHWACREGRSAVVEMLIMRGARINVMNRGDDTPLHLAASHGHRDIVQKLLQYKADINAVNEHGNVPLHYACFWGQDQVAEDLVANGALVSICNKYGEMPVDKAKAPLRELLRERAEK | not soluble
9 | MGHHHHHHSHMFSEECIMDVIGCLEYDPALSQPRKHREFLTKTAKFKEVIPISDPELKQKIHQTYRVQYIQDMVLPTPSVFEENMLSTLHSFIFFNKVEIVGMLQEDEKFLTDLFAQLTDEATDEEKRQELVNFLKEFCAFSQTLQPQNRDAFFKTLSNMGILPALEVILGMDDTQVRSAATDIFSYLVEYNPSMVREFVMQEAQQNDDVSKKLTEQKITSKVNIICTNSKYLYIGSYNCFYYSF | soluble
10 | MGHHHHHHSHMHSLATAAPVPTTLAQVDREKIYQWINELSSPETRENALLELSKKRESVPDLAPMLWHSFGTIAALLQEIVNIYPSINPPTLTAHQSNRVCNALALLQCVASHPETRSAFLAAHIPLFLYPFLHTVSKTRPFEYLRLTSLGVTGALVKTDEQEVINFLLTTEIIPLCLRIMESGSELSKTVATFILQKILLDDTGLAYICQTYERFSHVAMILGKMVLQLSKEPSARLLKHVVRCYLRLSDNPRFSDLTFCWSSFQRK | not soluble
11 | MGHHHHHHSHMIEVLTTTDSQKLLHQLNALLEQESRCQPKVCGLRLIESAHDNGLRMTARLRDFEVKDLLSLTQFFGFDTETFSLAVNLLDRFLSKMKVQPKHLGCVGLSCFYLAVKSIEEERNVPLATDLIRISQYRFTVSDLMRMEKIVLEKVCWKVKATTAFQFLQLYYSLLQENLPLERRNSINFERLEAQLKACHCRIIFSKAKPSVLALSIIALEIQAQKCVELTEGIECLQKHSKINGRDLTFWQELVSKCLTEYSSNKCSKPNVQKLKWIVSGRTARQLKHSYYRITHLPTIPEMVP | not soluble
12 | MGHHHHHHSHMINQRMIHMKNTKLLLAIATSAALLTGCQNTHGIDTNMAISSGLNAYKAATLSDADAKAIANQGCAEMDSGNQVASKSSKYGKRLAKIAKALGNNINGTPVNYKVYMTSDVNAWAMANGCVRVYSGLMDMMNDNEIEGVLGHELGHVALGHSLAEMKASYAIVAARDAISATSGVASQLSRSQLGDIAEGAINAKYSRDKESEADDFSFDLLKKRGISTQGLVGSFETLASLDGGRTQSMFDSHPPSTERAQHIRDRIASGK | not soluble
13 | MGHHHHHHSHMKPHFRNTVERMYRDTFSYNFYNRPILSRRNTVWLCYEVKTKGPSRPRLDAKIFRGQVPRSFIRAPFQVLSSPFGQCAPPHGTAQVQWPPQLTAGREQGRP | not soluble
14 | MGHHHHHHSHMKRDELMELIFLGTSAGVPTRTRNVTAILLNLQHPTQSGLWLFDCGEGTQHQLLHTAFNPGKLDKIFISHLHGDHLFGLPGLLCSRSMSGIIQPLTIYGPQGIREFVETALRISGSWTDYPLEIVEIGAGEILDDGLRKVTAYPLEHPLECYGYRIEEHDKPGALNAQALKAAGVPPGPLFQELKAGKTITLEDGRQINGADYLAAPVPGKALAIFGDTGPCDAALDLAKGVDVMVHEATLDITMEAKANSRGHSSTRQAATLAREAGVGKLIITHVSSRYDDKGCQHLLRECRSIFPATELANDFTVFNV | not soluble
15 | MGHHHHHHSHMPKAKKVDAVGPAADADITKPELVVPSEDPKTEEIESVEEKTVEKSTEKPVDKKGGRPVRGKKSPGSDEEAMDGEYEADEEEAALEPRRSTRGKRSYDQETGGRSVRKVVKKAKEVNKKPERAPSARGRGQKPAIGNDSTTEDGEEKKSGKNASDTDSDEEAKVVKRPTSGRMSGAPPSARMLALKKKNHDDSE | not soluble
16 | MGHHHHHHSHMPKVKRSRKAPQDGWELIEPTLDQLDQKMREAETEPHEGKRKVESLWPIFRIHHQKTRYIFDLFYKRKAYSRELLDICYKEGLADKNLLAKWKKQGIGNLCCLRCIQTRDTNFGTNCICRVPKSKLEVGRIIECTHCGCRGCSG | not soluble
17 | MGHHHHHHSHMSIRNWVTRTPSSSPPITPPASETKIMSPRKALTPVSQKSSQAEACSESRNRVKRRLDSSCLESVKQKCVKSCNCVTELDGQVENLHLDLCCLAGNQEDLSKDSLGPTKSSKIEGAGTSISEPPSPISPYASESCGTLPLPLRPCGEGSEMVGKENSSPENKNWLLAMAAKRKAENPSPRSPSSQTPNSRRQSGKTLPSPVTITPSSMRKICTYFHRKSQEDFCGPEHSTEL | not soluble
18 | MGHHHHHHSHMSSSAGSGHQPSQSRAIPTRTVAISDAAQLPHDYCTTPGGTLFSTTPGGTRIIYDRKFLLDRRNSPMAQTPPCHLPNIPGVTSPGTLIEDSKVEVNNLNNLNNHDRKHAVGDDAQFEMDI | soluble
19 | MGHHHHHHSHMTAYSVGMGAEIQLCSHPIGLSKNQSRNPTKTLDSAKILACSLAQSKQPIRWEADPYNNIVYSIYYMELTLPTTPCRMLPQYQEKYGAVGRGTPYWIYYRKTLYLEIPLSERVGLKGGDTKMGIQDGTHQRDPPFYKPTPPPHIPPVLEKHTGWSYLCGYTWWTP | not soluble
20 | MGHHHHHHSHMTKIIPVASGKGGVGKTSFVANVGYKLSSLGKTVILVDLDLGGSNLHTCLGVKNKGVGIGSFINKKSKSFSDLVCKTSYDKLYLIPGDALYTGTANLPFSIKKKIIESIQKDLIADFIFLDLGSGTSYNTIDFYLASYSGVIVTIPETPSILNAYSFLKNALYRLLYLGFP | not soluble
21 | MGHHHHHHSHMTLKSSGRISDVFLCRHEKIFHPNKGYIYVVKVMRENTHEATYIQRTFEEFQELHNKLRLLFPSSHLPSFPSRFVIGRSRGEAVAERRREELNGYIWHLIHAPPEVAECDLVYTFFHPLPRDEKAMGTSPAPKSSDGTWARPVGKVGGEVKLSISYKNNKLFIMVMHIRGLQLLQDGNDPDPYVKIYLLPDPQKTTKRKTKVARKTCNPTYNEMLVYDGIPKGDLQQRELQLSVLSEQGFWENVLLGEVNIRLRELDLAQEKTGWFALGSRSHGTL | not soluble
22 | MGHHHHHHSHMVISWHLASDMDCVVTLTTDAARRIYDETQGRQQVLPLDSIYKKTLPDWKRSLPHFRNGKLYFKPIGDPVFARDLLTFPDNVEHCETVFGMLLGDTIILDNLDAANHYRKEVVKITHCPTLLTRDGDRIRSNGKFGGLQNKAPPMDKLRGMVFGAPVPKQCLILGEQIDLLQQYRSAVCKLDSVNKDLNSQLEYLRTPDMRKKKQELDEHEKNLKLIEEKLGMTPIRKCNDSLRHSPKVETTDCPVPPKRMRREATRQNRIITKTDV | not soluble
23 | MGHHHHHHSHMVTPVTWMDNPIEVYVNDSVWVPGPTDDHCPAKPEEEGMMINISIGYHYPPICLGRAPGCLMPAVQNWLVEVPTVSPISRFTYHMVSGMSLRPRVNYLQDFSYQRSLKFRPKGKPCPKEIPKGSKNTEVLVWEECVANSAVILQNSEFGTIID | not soluble
24 | MGHHHHHHSHMVYPEEPFWVLPTVTGFYEDRDYRVNVVEALQEFWQMKQSRGAELKNGALVIYESIPSNSQPYICFVTLPGGSCFGSFQNCPTKAEARRSSAKIALMNSVFNEHPSRRISDEFIQKAVQDARTSFKGTSQINEGTESGIGAFRFMLEANKGRTMLEFQELMTVFQLLHWNGSLKAMRERHCSRQEVVAHYSNRSLDDEMRSQMALDWIAREHDNPGVIRRELVLAERELETFRMAGRELRFPKEKKDILMIAHNQLGGSALNSATIDD | not soluble
25 | MGHHHHHHSHMYAKEIFSYMKEREEQFILTDYMNRQIEITSDMRAILVDWLVEVQVSFEMTHETLYLAVKLVDLYLMKAVCKKDKLQLLGATAFMIAAKFEEHNSPRVDDFVYICDDNYQRSEVLSMEINILNVLKCDINIPIAYHFLRRYAR | not soluble
26 | MGHHHHHHSHRNRARFAARKQLVLNLVSSPGSGKTTLLTETLMRLKDSVPCAVIEGDQQTVNDAARIRATGTPAIQVNTGKGCHLDAQMIADAAPRLPLDDNGILFIENVGNLVCPASFDLGEKHKVAVLSVTEGEDK | soluble
27 | MGHHHHHHSHVLLNEILEQVKDRTCLRALEKIKIQLEKGNKEFGDQAEAAQDATLTTTTFQNEDEKNKEVYMTPLRGVKATQASKSTQLKTNRGQRKVTVSARTNRRCQTAEADSESDHEVPEPESEMKMRLPRRAKTAALEKSKLNLAQFLNEDLS | not soluble
28 | MGIDKELYKACETALKQCMGVKPGETVLVIADEPEREIGYHLWMKAKELGAEAIYVEILPRKMHGEEPPKPVAEAMKVADVVIAPTSKSITHTLAKKEACERGARVATLPGITREIFVRTMSADYEGMLELTNKIADVLDKGKEVHILTPLGTDLKFSIEGRKARRSTGIYRNPGECGNLPGAEAYIAPLEGTANGRVVIDGSMAGIGVLKEPIEIIVKDGFAEDIRGGEEAEKLREILSRYGKEARNIAEFGVGTNPKARISGNILEDEKVFGTVHIALGSNYDFGGKVKAPVHLDGIIKEPTVLIDGKYLFKDGNLVI | soluble
